Data taken from publication PMC10029155 (2023).
Where no end group is shown, it is not given here.

Target: cathepsin B (Homo sapiens, UniProt P07858)
Test: square wave voltammetry

SSTTNSNSTSNTK-biotin [CTSB BP3, listing 1 of 2 here]
Kd: 50.8 nM

WDMWPSMDWKAE (also: displayed on M13 phage pIII) [CTSB 4-1 phage-displayed peptide]
Kd: 73.7 nM

SSTTNSNSTSNTK-biotin [CTSB BP3, listing 2 of 2 here]
Kd: 11.6 nM
